From patent US20240270846A1 (published 2024)
Residue numbers refer to the chain shown, from its start. In names and notes the source's numbering stands. Blank lines part the entries; values can stand above or below the binder they belong to.

Biological target: T1, CD3 epsilon homodimer protein (UniProt P07766 23-126)
T1 construct: also called CD3 (CD3 epsilon)
Experiment: SPR, CD3e homodimer on chip;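 note: surface plasmon resonance at 25 degrees C, antibodies flowed as analyte over CD3 epsilon homodimer amine-coupled to a CM4 chip, running buffer HBS-EP+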

T1 sequence (P07766 23-126): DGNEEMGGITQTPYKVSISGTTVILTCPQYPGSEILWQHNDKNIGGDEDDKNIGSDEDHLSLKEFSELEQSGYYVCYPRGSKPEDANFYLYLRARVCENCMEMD

ratio of amounts bound (altered form / unaltered GLS3000 antibody): 0.29
B2: GLS3000 N30S one-arm antibody (H chain CE115HA000) (antibody, human IgG1, kappa, L234A L235A, N297A, name in Kabat numbering)
heavy: QVQLVESGGGVVQPGRSLRLSCAASGFTFSNAWMHWVRQAPGKGLEWVAQIKAKSNNYATYYAESVKGRFTISRDDSKNSLYLQMNSLKTEDTAVYYCRYVHYGAYYGVDAWGQGTTVTVSSASTKGPSVFPLAPSSKSTSGGTAALGCLVKDYFPEPVTVSWNSGALTSGVHTFPAVLQSSGLYSLSSVVTVPSSSLGTQTYICNVNHKPSNTKVDKKVEPKSCDKTHTCPPCPAPEAAGGPSVFLFPPKPKDTLMISRTPEVTCVVVDVSHEDPEVKFNWYVDGVEVHNAKTKPREEQYASTYRVVSVLTVLHQDWLNGKEYKCKVSNKALPAPIEKTISKAKGQPREPQVYTLPPSRCELTKNQVSLSCAVKGFYPSDIAVEWESNGQPENNYKTTPPVLDSDGSFFLVSKLTVDKSRWQQGNVFSCSVMHEALHNHYTQKSLSLSPDYKDDDDK
chain: EPKSSDKTHTCPPCPAPELLGGPSVFLFPPKPKDTLMISRTPEVTCVVVDVSHEDPEVKFNWYVDGVEVHNAKTKPREEQYNSTYRVVSVLTVLHQDWLNGKEYKCKVSNKALPAPIEKTISKAKGQPREPQVCTLPPSRDELTKNQVSLWCLVKGFYPSDIAVEWESNGQPENNYKTTPPVLDSDGSFFLYSKLTVDKSRWQQGNVFSCSVMHEALHNRYTQKSLSLSP
light: DIVMTQSPLSLPVTPGEPASISCRSSQSLVHSNRSTYLHWYQQKPGQAPRLLIYKVSNRFSGVPDRFSGSGSGTDFTLKISRVEAEDVGVYYCGQGTQVPYTFGQGTKLEIKRTVAAPSVFIFPPSDEQLKSGTASVVCLLNNFYPREAKVQWKVDNALQSGNSQESVTEQDSKDSTYSLSSTLTLSKADYEKHKVYACEVTHQGLSSPVTKSFNRGEC
notes: one-arm antibody

ratio of amounts bound (altered form / unaltered GLS3000 antibody): 0.29
B3: GLS3000 Q27P one-arm antibody (H chain CE115HA000) (antibody, human IgG1, kappa, L234A L235A, N297A, name in Kabat numbering)
heavy: B2 heavy
chain: B2 chain
light: B2 light with Q27P, S35N
notes: one-arm antibody

ratio of amounts bound (altered form / unaltered GLS3000 antibody): 0.34
B7: GLS3000 N53D one-arm antibody (H chain CE115HA000) (antibody, human IgG1, kappa, L234A L235A, N297A, name in Kabat numbering)
heavy: B2 heavy
chain: B2 chain
light: B2 light with S35N, N58D
notes: one-arm antibody

ratio of amounts bound (altered form / unaltered GLS3000 antibody): 0.61
B8: GLS3000 N30V one-arm antibody (H chain CE115HA000) (antibody, human IgG1, kappa, L234A L235A, N297A, name in Kabat numbering)
heavy: B2 heavy
chain: B2 chain
light: B2 light with S35V
notes: one-arm antibody

ratio of amounts bound (altered form / unaltered GLS3000 antibody): 0.75
B9: GLS3000 R24D one-arm antibody (H chain CE115HA000) (antibody, human IgG1, kappa, L234A L235A, N297A, name in Kabat numbering)
heavy: B2 heavy
chain: B2 chain
light: B2 light with R24D, S35N
notes: one-arm antibody

ratio of amounts bound (altered form / unaltered GLS3000 antibody): 1.19
B11: GLS3000 Q27R one-arm antibody (H chain CE115HA000) (antibody, human IgG1, kappa, L234A L235A, N297A, name in Kabat numbering)
heavy: B2 heavy
chain: B2 chain
light: B2 light with Q27R, S35N
notes: one-arm antibody

ratio of amounts bound (altered form / unaltered GLS3000 antibody): 0.9
B12: GLS3000 R24Q one-arm antibody (H chain CE115HA000) (antibody, human IgG1, kappa, L234A L235A, N297A, name in Kabat numbering)
heavy: B2 heavy
chain: B2 chain
light: B2 light with R24Q, S35N
notes: one-arm antibody

ratio of amounts bound (altered form / unaltered GLS3000 antibody): 0.83
B16: GLS3000 R24E one-arm antibody (H chain CE115HA000) (antibody, human IgG1, kappa, L234A L235A, N297A, name in Kabat numbering)
heavy: B2 heavy
chain: B2 chain
light: B2 light with R24E, S35N
notes: one-arm antibody

ratio of amounts bound (altered form / unaltered GLS3000 antibody): 0.29
B18: GLS3000 N30T one-arm antibody (H chain CE115HA000) (antibody, human IgG1, kappa, L234A L235A, N297A, name in Kabat numbering)
heavy: B2 heavy
chain: B2 chain
light: B2 light with S35T
notes: one-arm antibody

ratio of amounts bound (altered form / unaltered GLS3000 antibody): 0.89
B19: GLS3000 R24G one-arm antibody (H chain CE115HA000) (antibody, human IgG1, kappa, L234A L235A, N297A, name in Kabat numbering)
heavy: B2 heavy
chain: B2 chain
light: B2 light with R24G, S35N
notes: one-arm antibody

ratio of amounts bound (altered form / unaltered GLS3000 antibody): 0.99
B22: GLS3000 N30W one-arm antibody (H chain CE115HA000) (antibody, human IgG1, kappa, L234A L235A, N297A, name in Kabat numbering)
heavy: B2 heavy
chain: B2 chain
light: B2 light with S35W
notes: one-arm antibody

ratio of amounts bound (altered form / unaltered GLS3000 antibody): 0.92
B23: GLS3000 Q27L one-arm antibody (H chain CE115HA000) (antibody, human IgG1, kappa, L234A L235A, N297A, name in Kabat numbering)
heavy: B2 heavy
chain: B2 chain
light: B2 light with Q27L, S35N
notes: one-arm antibody

ratio of amounts bound (altered form / unaltered GLS3000 antibody): 0.88
B24: GLS3000 Q27E one-arm antibody (H chain CE115HA000) (antibody, human IgG1, kappa, L234A L235A, N297A, name in Kabat numbering)
heavy: B2 heavy
chain: B2 chain
light: B2 light with Q27E, S35N
notes: one-arm antibody

ratio of amounts bound (altered form / unaltered GLS3000 antibody): 0.86
B25: GLS3000 R24A one-arm antibody (H chain CE115HA000) (antibody, human IgG1, kappa, L234A L235A, N297A, name in Kabat numbering)
heavy: B2 heavy
chain: B2 chain
light: B2 light with R24A, S35N
notes: one-arm antibody

ratio of amounts bound (altered form / unaltered GLS3000 antibody): 0.85
B26: GLS3000 Q27D one-arm antibody (H chain CE115HA000) (antibody, human IgG1, kappa, L234A L235A, N297A, name in Kabat numbering)
heavy: B2 heavy
chain: B2 chain
light: B2 light with Q27D, S35N
notes: one-arm antibody

ratio of amounts bound (altered form / unaltered GLS3000 antibody): 0.7
B27: GLS3000 R24P one-arm antibody (H chain CE115HA000) (antibody, human IgG1, kappa, L234A L235A, N297A, name in Kabat numbering)
heavy: B2 heavy
chain: B2 chain
light: B2 light with R24P, S35N
notes: one-arm antibody

ratio of amounts bound (altered form / unaltered GLS3000 antibody): 0.61
B30: GLS3000 N53A one-arm antibody (H chain CE115HA000) (antibody, human IgG1, kappa, L234A L235A, N297A, name in Kabat numbering)
heavy: B2 heavy
chain: B2 chain
light: B2 light with S35N, N58A
notes: one-arm antibody

ratio of amounts bound (altered form / unaltered GLS3000 antibody): 1.04
B32: GLS3000 N30Y one-arm antibody (H chain CE115HA000) (antibody, human IgG1, kappa, L234A L235A, N297A, name in Kabat numbering)
heavy: B2 heavy
chain: B2 chain
light: B2 light with S35Y
notes: one-arm antibody

The next lines start with the binder.

B1: GLS3000 N28Y one-arm antibody (H chain CE115HA000) (antibody, human IgG1, kappa, L234A L235A, N297A, name in Kabat numbering)
heavy: B2 heavy
chain: B2 chain
light: B2 light with N33Y, S35N
notes: one-arm antibody
ratio of amounts bound (altered form / unaltered GLS3000 antibody): 0.26

B4: GLS3000 N30R one-arm antibody (H chain CE115HA000) (antibody, human IgG1, kappa, L234A L235A, N297A, name in Kabat numbering)
heavy: B2 heavy
chain: B2 chain
light: B2 light with S35R
notes: one-arm antibody
ratio of amounts bound (altered form / unaltered GLS3000 antibody): 1.86

B5: GLS3000 N30P one-arm antibody (H chain CE115HA000) (antibody, human IgG1, kappa, L234A L235A, N297A, name in Kabat numbering)
heavy: B2 heavy
chain: B2 chain
light: B2 light with S35P
notes: one-arm antibody
ratio of amounts bound (altered form / unaltered GLS3000 antibody): 0.31

B6: GLS3000 N30G one-arm antibody (H chain CE115HA000) (antibody, human IgG1, kappa, L234A L235A, N297A, name in Kabat numbering)
heavy: B2 heavy
chain: B2 chain
light: B2 light with S35G
notes: one-arm antibody
ratio of amounts bound (altered form / unaltered GLS3000 antibody): 0.47

B10: GLS3000 N30Q one-arm antibody (H chain CE115HA000) (antibody, human IgG1, kappa, L234A L235A, N297A, name in Kabat numbering)
heavy: B2 heavy
chain: B2 chain
light: B2 light with S35Q
notes: one-arm antibody
ratio of amounts bound (altered form / unaltered GLS3000 antibody): 0.87

B13: GLS3000 N30I one-arm antibody (H chain CE115HA000) (antibody, human IgG1, kappa, L234A L235A, N297A, name in Kabat numbering)
heavy: B2 heavy
chain: B2 chain
light: B2 light with S35I
notes: one-arm antibody
ratio of amounts bound (altered form / unaltered GLS3000 antibody): 0.61

B14: GLS3000 N30M one-arm antibody (H chain CE115HA000) (antibody, human IgG1, kappa, L234A L235A, N297A, name in Kabat numbering)
heavy: B2 heavy
chain: B2 chain
light: B2 light with S35M
notes: one-arm antibody
ratio of amounts bound (altered form / unaltered GLS3000 antibody): 0.8

B15: GLS3000 N30K one-arm antibody (H chain CE115HA000) (antibody, human IgG1, kappa, L234A L235A, N297A, name in Kabat numbering)
heavy: B2 heavy
chain: B2 chain
light: B2 light with S35K
notes: one-arm antibody
ratio of amounts bound (altered form / unaltered GLS3000 antibody): 1.65

B17: GLS3000 N30L one-arm antibody (H chain CE115HA000) (antibody, human IgG1, kappa, L234A L235A, N297A, name in Kabat numbering)
heavy: B2 heavy
chain: B2 chain
light: B2 light with S35L
notes: one-arm antibody
ratio of amounts bound (altered form / unaltered GLS3000 antibody): 0.7

B20: GLS3000 N30E one-arm antibody (H chain CE115HA000) (antibody, human IgG1, kappa, L234A L235A, N297A, name in Kabat numbering)
heavy: B2 heavy
chain: B2 chain
light: B2 light with S35E
notes: one-arm antibody
ratio of amounts bound (altered form / unaltered GLS3000 antibody): 0.44

B21: GLS3000 N30D one-arm antibody (H chain CE115HA000) (antibody, human IgG1, kappa, L234A L235A, N297A, name in Kabat numbering)
heavy: B2 heavy
chain: B2 chain
light: B2 light with S35D
notes: one-arm antibody
ratio of amounts bound (altered form / unaltered GLS3000 antibody): 0.34

B28: GLS3000 N30H one-arm antibody (H chain CE115HA000) (antibody, human IgG1, kappa, L234A L235A, N297A, name in Kabat numbering)
heavy: B2 heavy
chain: B2 chain
light: B2 light with S35H
notes: one-arm antibody
ratio of amounts bound (altered form / unaltered GLS3000 antibody): 0.98

B29: GLS3000 N30F one-arm antibody (H chain CE115HA000) (antibody, human IgG1, kappa, L234A L235A, N297A, name in Kabat numbering)
heavy: B2 heavy
chain: B2 chain
light: B2 light with S35F
notes: one-arm antibody
ratio of amounts bound (altered form / unaltered GLS3000 antibody): 1.1

B31: GLS3000 N30A one-arm antibody (H chain CE115HA000) (antibody, human IgG1, kappa, L234A L235A, N297A, name in Kabat numbering)
heavy: B2 heavy
chain: B2 chain
light: B2 light with S35A
notes: one-arm antibody
ratio of amounts bound (altered form / unaltered GLS3000 antibody): 0.5
